# Patent US20220389111A1 (SHANGHAI EPIMAB BIOTHERAPEUTICS, published 2022)
# T1: mouse CD39 protein (recombinant) (mouse, UniProt P55772 38-478, limits assumed)
# T1 construct: also called muCD39; recombinant purified mouse CD39 protein
# T1 sequence (looked up): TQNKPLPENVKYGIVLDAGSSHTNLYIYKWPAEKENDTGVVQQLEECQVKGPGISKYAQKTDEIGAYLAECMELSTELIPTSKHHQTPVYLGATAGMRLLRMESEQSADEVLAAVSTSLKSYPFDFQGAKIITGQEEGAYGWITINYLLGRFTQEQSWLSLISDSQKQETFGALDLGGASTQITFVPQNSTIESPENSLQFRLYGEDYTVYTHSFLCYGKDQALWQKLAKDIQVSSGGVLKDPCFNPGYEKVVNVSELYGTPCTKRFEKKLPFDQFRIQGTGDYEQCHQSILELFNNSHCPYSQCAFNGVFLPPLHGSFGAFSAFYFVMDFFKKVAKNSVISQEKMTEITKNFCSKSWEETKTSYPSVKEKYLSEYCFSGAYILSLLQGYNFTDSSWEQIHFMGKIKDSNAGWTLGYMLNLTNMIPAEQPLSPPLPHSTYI
# T2: mouse CD39 on CHO-K1 cells (mouse, UniProt P55772 1-510)
# T2 construct: whole, on cells; also called CHOK1-muCD39
# T2 sequence (looked up): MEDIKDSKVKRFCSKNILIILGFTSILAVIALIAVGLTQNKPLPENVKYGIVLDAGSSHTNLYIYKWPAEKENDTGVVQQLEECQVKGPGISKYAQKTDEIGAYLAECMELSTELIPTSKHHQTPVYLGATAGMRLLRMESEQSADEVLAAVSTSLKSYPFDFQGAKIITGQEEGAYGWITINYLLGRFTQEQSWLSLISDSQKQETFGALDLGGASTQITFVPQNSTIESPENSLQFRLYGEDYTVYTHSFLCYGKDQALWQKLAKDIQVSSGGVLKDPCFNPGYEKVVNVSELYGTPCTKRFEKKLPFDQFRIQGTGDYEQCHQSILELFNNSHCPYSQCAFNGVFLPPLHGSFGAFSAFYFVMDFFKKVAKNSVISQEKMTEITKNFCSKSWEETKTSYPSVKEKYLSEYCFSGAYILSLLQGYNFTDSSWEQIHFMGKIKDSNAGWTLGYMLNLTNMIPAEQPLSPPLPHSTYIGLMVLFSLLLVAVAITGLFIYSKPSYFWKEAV
# T3: muCD39-ECD-His (mouse, UniProt P55772 38-477)
# T3 construct: also called C-terminally hexahistidine-tagged murine CD39 extracellular domain
# T3 chain: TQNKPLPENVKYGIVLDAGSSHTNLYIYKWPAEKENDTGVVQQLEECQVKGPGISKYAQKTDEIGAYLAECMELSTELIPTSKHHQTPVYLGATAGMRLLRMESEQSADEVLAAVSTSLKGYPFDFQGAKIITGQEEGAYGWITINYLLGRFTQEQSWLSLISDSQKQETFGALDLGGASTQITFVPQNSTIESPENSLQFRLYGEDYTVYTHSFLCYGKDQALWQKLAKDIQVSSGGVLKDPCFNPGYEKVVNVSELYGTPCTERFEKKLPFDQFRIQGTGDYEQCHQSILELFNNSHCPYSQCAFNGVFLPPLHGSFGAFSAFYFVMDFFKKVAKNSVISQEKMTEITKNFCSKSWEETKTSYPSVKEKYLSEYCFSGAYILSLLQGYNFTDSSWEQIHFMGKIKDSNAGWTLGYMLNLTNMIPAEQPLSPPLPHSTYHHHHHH
# T4: human CD39 on the cell membrane (CHO-K1-human CD39 stable cell line); SK-MEL-28 melanoma cells; human CD4+ T … (human, UniProt P49961 1-510)
# T4 construct: Overexpressed on CHO-K1 cells or endogenous on SK-MEL-28 / T cells; the assay field says which cells; also called huCD39; CHO-K1-huCD39
# T4 sequence: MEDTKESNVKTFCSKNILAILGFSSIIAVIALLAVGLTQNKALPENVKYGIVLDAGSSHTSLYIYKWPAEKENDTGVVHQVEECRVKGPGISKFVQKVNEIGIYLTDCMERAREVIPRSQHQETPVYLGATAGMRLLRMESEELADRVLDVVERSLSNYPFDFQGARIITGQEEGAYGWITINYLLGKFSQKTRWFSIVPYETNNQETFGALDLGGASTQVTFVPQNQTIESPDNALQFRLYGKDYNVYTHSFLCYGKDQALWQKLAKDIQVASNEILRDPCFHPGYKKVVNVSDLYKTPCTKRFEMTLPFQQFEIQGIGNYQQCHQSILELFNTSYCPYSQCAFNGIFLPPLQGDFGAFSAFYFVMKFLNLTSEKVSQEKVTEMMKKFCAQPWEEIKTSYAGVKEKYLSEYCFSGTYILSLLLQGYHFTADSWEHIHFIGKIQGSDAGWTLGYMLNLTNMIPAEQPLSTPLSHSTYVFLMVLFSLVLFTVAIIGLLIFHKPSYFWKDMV
# T5: huCD39-ECD-His (human, UniProt P49961 38-478)
# T5 construct: also called C-terminally hexahistidine-tagged human CD39 extracellular domain
# T5 sequence: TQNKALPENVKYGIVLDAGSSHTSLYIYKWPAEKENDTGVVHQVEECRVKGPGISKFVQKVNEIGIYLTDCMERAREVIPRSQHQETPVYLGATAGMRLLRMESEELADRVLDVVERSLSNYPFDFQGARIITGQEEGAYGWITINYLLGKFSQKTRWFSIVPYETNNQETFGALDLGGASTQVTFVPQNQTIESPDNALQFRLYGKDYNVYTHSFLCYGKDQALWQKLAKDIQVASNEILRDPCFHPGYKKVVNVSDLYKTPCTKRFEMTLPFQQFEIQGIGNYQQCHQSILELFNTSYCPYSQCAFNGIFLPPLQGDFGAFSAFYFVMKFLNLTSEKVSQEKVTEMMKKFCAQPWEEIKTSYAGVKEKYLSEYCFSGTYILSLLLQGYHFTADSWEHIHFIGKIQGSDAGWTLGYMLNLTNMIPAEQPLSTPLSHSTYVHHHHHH
# T6: cynomolgus monkey CD39 on CHO-K1 cells (cynomolgus monkey, UniProt A0A7N9DGH8 1-510)
# T6 construct: whole, on cells; also called CHO-K1-cyCD39; CHO-K1-cyno CD39
# T6 sequence: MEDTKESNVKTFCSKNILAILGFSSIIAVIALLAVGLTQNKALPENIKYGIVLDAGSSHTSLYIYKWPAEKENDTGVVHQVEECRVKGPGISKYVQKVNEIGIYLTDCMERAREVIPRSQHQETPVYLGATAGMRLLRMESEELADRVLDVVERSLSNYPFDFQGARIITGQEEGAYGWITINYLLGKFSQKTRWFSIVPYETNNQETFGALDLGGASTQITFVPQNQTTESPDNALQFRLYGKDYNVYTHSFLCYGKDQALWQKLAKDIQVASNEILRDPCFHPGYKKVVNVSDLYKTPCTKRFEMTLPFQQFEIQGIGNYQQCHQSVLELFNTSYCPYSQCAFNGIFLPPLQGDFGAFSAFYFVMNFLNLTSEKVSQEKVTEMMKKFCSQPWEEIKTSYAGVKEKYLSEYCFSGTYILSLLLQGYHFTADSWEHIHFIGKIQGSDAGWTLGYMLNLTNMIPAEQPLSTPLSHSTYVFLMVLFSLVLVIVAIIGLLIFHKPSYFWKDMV
# Legend:
# [1] = target: T1, mouse CD39 protein (recombinant); experiment: ELISA on coated mouse CD39 protein
# Description: To determine if anti-CD39 mAbs bind to human CD39, ELISA plates were incubated overnight at 4° C. with human CD39 protein or mouse CD39 protein diluted in PBS, pH7.4 buffer at 1 μg/ml. Plates were washed four times in washing buffer (PBS containing 0.05% Tween 20), and blocked for 1 hour at 37° C. with 200 μl per well blocking buffer (1% BSA in PBS containing 0.05% Tween 20). After blocking buffer was removed, hybridoma supernatant or diluted purified Abs were added to the wells at 100 μl per well and incubated at 37° C. for 1 hour. The wells were washed four times with washing buffer, and anti-mouse HRP (for mouse anti-human CD39 Ab characterization) or anti-rat HRP (for rat anti-mouse CD39 Ab characterization) (Sigma) were 1:5000 diluted and added to the wells at 100 μl per well. The plates were incubated for 1 hour at 37° C. and washed four times in washing buffer. 100 μl of tetramethylbenzidine (TMB) chromogenic solution were added per well. Following color development, the reaction was stopped with 1N HCl, and absorbance at 450 nm was measured. The data were proceeded by GraphPad software.
# [2] = target: T2, mouse CD39 on CHO-K1 cells; experiment: FACS on CHO-K1-mouse CD39 cells
# Description: (§1) The ability of the purified antibodies to bind to cell membrane human CD39, cynomolgus monkey CD39, or mouse CD39 was determined by FACS analysis. CHO-K1 cells stably transfected to overexpress human CD39, cynomolgus monkey CD39, or mouse CD39 (CHO-K1-huCD39 cells, CHO-K1-cyCD39 cells, and CHOK1-muCD39 cells) were generated for use in this assay. Briefly, SK-MEL-28 melanoma cells (ATCC) or CD39 overexpressing stable CHO cell lines were resuspended in PBS containing 2% FBS (FACS buffer) and seeded at 1-5×10⁵ cells/well into U-bottomed plates. Anti-CD39 mAbs or isotype control antibodies diluted in FACS buffer were added to the wells and incubated for 1 hour at 4° C. After washing with FACS buffer, 1:1000 diluted Fluorescence-labeled secondary antibody (Life Technologies/ThermoFisher Scientific) were added and incubated for 30 min. at 4° C. Unbound secondary mAb was removed by washing with FACS buffer three times, and the samples were then read on a FACS instrument. The data were processed by GraphPad software.
# muCD39-ECD-His = target: T3, muCD39-ECD-His; experiment: SPR (Biacore T200), antibody captured, antigen in solution
# Description: (§2) The binding kinetics of purified antibodies was determined by surface plasmon resonance-based measurements using a Biacore T200 instrument (GE Healthcare). Briefly, goat anti-mouse IgG Fc polyclonal antibody (Genway) was directly immobilized across a biosensor chip, and antibody samples were injected over reaction matrices at a flow rate of 5 μl/min. The association and dissociation rate constants, kₒₙ (M⁻¹s⁻¹) and koff(s⁻¹), respectively, were determined by making kinetic binding measurements of anti-CD39 antibody capture at five different concentrations of a recombinant human or mouse CD39 target protein (huCD39-ECD-His or muCD39-ECD-His). The equilibrium dissociation constant KD (M) of the reaction between antibodies and related target proteins was then calculated from the kinetic rate constants using the formula: KD=koff/kₒₙ. Binding affinities for murine anti-human CD39 antibodies mAb635 and mAb638 are shown in Table 9; binding affinity for rat anti-mouse CD39 antibody mAb605 is shown in Table 10.
# [3] = target: T4, human CD39 on the cell membrane …; experiment: FACS on CHO-K1-human CD39 cells
# Description: as §1
# huCD39-ECD-His [4] = target: T5, huCD39-ECD-His; experiment: BLI (Octet RED96), antibody captured on AMC biosensor, antigen in solution
# Description: Anti-CD39 antibodies were characterized for affinities and binding kinetics using the Octet®RED96 biolayer interferometry system (Pall FortéBio LLC). Purified anti-CD39 antibodies were captured by Anti-Mouse IgG Fc Capture (AMC) biosensors or Anti-Human IgG Fc Capture (AHC) biosensors at a concentration of 100 nM for 30 seconds. Biosensors were then dipped into running buffer (1X pH7.2 PBS, 0.05% Tween 20, 0.1% BSA) for 60 seconds to check baseline. Binding was measured by dipping sensors into purified recombinant human CD39 protein, 3-fold serial diluted from 200 nM, for 120 seconds. Dissociation was followed by dipping sensors into running buffer for 600 seconds. The association and dissociation curves were fitted to a 1:1 Langmuir binding model using Fortebio Data Analysis software (Pall FortéBio LLC).
# [5] = target: T6, cynomolgus monkey CD39 on CHO-K1 cells; experiment: FACS on CHO-K1-cyno CD39 cells
# Description: as §1
# huCD39-ECD-His [6] = target: T5, huCD39-ECD-His; experiment: SPR (Biacore T200), antibody captured by anti-mouse IgG Fc, antigen in solution
# Description: as §2
# [7] = target: T4, human CD39 on the cell membrane …; experiment: cell-based or functional assay
# [8] = target: T4, human CD39 on the cell membrane …; experiment: cell-based or functional assay; remark: listed apart in the source
EC50 [1] [nM],EC50 [2] [nM],Kd (muCD39-ECD-His) [nM],koff (muCD39-ECD-His) [s⁻¹],EC50 [3] [nM],Kd (huCD39-ECD-His [4]) [nM],koff (huCD39-ECD-His [4]) [s⁻¹],kon (huCD39-ECD-His [4]) [M⁻¹ s⁻¹],EC50 [5] [nM],Kd (huCD39-ECD-His [6]) [nM],koff (huCD39-ECD-His [6]) [s⁻¹],kon (huCD39-ECD-His [6]) [M⁻¹ s⁻¹],"IC50 (read off the curve), cell-surface hCD39 ATPase activity [7] [nM]","IC50 (read off the curve), cell-surface huCD39 ATPase activity [8] [nM]",Binder
0.09,2.07,0.389,0.000109,–,–,–,–,–,–,–,–,–,–,"mAb605 (antibody, V domains shown, rat anti-mouse CD39 hybridoma mAb, IgG2a, κ) VH: EVQLVESGGGLVQPGRSLKLSCAASGFTFSDNYLAWVRQAPEKGLEWVASISFEGISTYYGDSVKGRFTISKDNARRTLYLQMNSLRSEDTATYYCARRSYGSRAMDAWGQGTSVTVSS VL: DVVMTQTPVSLPVGLGGQASISCRSSQSLVHSNGNTYLSWYLKRPGQSPQLLIYRVSSRFSGVPDRFSGSGSGTDFTLKISKVVPGDLGHYYCLQTTQYPYTFGAGTKLELK"
–,–,–,–,3.34,2.27,0.000426,188000,19.2,0.203,0.000117,574000,~0.4,~0.4,"mAb638 (antibody, V domains shown, mouse anti-human CD39 hybridoma mAb, IgG1, κ) VH: QVQLQQPGTELVKPGASVKLSCKASGYTFTSFWMHWVKQRPGQGLEWIGNINPRNGATKYNEKFRSKVTLTADKTSSTAYMHLSSLTSEDSAVYYCAREDYDEIYYAMDSWGQGTSVTVSS VL: QNVLTQSPAIMSASPGEKVTMTCSASSSVIYMYWFQQKPGSSPRVLIYDTSNLASGVPARFSGSGSGTSYSLTISRMEAEDAATYYCQQWSTYPLTFGAGTKLELK"
